Results published in patent US20260035452A1, “NOVEL INTERLEUKIN-17A (IL-17A)-DERIVED PEPTIDE AND NEUTRALIZING ANTIBODY (AB17-IPL-1)” (THE UNIVERSITY OF BIRMINGHAM, priority 2022, published 2026).

Biological target: IL-17 (used on human synovial fibroblasts, Example 9)
Assay: cell-based or functional assay

IL-6 production by human RA fibroblasts stimulated with IL-17 (10 ng/ml) and TNF-α (100 U/ml); 3662.05 µg/ml without antibody; antibody at 10 µg/ml: 2320 µg/mL
Substance: MAB421 (antibody)
